According to the supplement of paper PMC10065799, “High-throughput profiling of sequence recognition by tyrosine kinases and SH2 domains using bacterial peptide display” (eLife, 2023):

Tests used:
c-Src SH2 = experiment: SH2 binding enrichment of the phosphorylated peptide, bacterial display (enrichment ratio); higher = better substrate or ligand; peptides without Tyr show the background
Grb2 SH2 = Grb2 SH2 (UniProt P62993); experiment: as above
SHP2-C SH2 = experiment: as above
Fer (mouse) = experiment: phosphorylation enrichment, bacterial display (enrichment ratio); higher = better substrate or ligand; peptides without Tyr show the background
Fyn = Fyn (UniProt P06241); experiment: as above
FGFR3 = FGFR3 (UniProt P22607); experiment: as above
Jak2 = Jak2 (UniProt O60674); experiment: as above
MERTK = MERTK (UniProt Q12866); experiment: as above
Fes = Fes (UniProt P07332); experiment: as above
FGFR1 = FGFR1 (UniProt P11362); experiment: as above
c-Src = experiment: as above
AncSZ = experiment: as above
EPHB2 = EPHB2 (UniProt P29323); experiment: as above
Hck = Hck (UniProt P08631); experiment: as above
EPHB1 = EPHB1 (UniProt P54762); experiment: as above
c-Abl (mouse) = experiment: as above
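Wherever SH2 binding enrichment of the phosphorylated peptide, bacterial display is given: peptide library displayed on the E. coli surface as eCPX fusions, selected cells deep-sequenced, score is each peptide's frequency after selection divided by its frequency in the input.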
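Wherever phosphorylation enrichment, bacterial display is given: 11-residue human phosphosite peptides and single-mutation variants displayed on the E. coli surface, counted by deep sequencing, each peptide's frequency after selection divided by its frequency in the unselected input library; frequency after pTyr selection over input frequency; kinase dosed for 20-30% of maximal phosphorylation in three min.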

EPHB2, sequence (P29323 whole entry, looked up): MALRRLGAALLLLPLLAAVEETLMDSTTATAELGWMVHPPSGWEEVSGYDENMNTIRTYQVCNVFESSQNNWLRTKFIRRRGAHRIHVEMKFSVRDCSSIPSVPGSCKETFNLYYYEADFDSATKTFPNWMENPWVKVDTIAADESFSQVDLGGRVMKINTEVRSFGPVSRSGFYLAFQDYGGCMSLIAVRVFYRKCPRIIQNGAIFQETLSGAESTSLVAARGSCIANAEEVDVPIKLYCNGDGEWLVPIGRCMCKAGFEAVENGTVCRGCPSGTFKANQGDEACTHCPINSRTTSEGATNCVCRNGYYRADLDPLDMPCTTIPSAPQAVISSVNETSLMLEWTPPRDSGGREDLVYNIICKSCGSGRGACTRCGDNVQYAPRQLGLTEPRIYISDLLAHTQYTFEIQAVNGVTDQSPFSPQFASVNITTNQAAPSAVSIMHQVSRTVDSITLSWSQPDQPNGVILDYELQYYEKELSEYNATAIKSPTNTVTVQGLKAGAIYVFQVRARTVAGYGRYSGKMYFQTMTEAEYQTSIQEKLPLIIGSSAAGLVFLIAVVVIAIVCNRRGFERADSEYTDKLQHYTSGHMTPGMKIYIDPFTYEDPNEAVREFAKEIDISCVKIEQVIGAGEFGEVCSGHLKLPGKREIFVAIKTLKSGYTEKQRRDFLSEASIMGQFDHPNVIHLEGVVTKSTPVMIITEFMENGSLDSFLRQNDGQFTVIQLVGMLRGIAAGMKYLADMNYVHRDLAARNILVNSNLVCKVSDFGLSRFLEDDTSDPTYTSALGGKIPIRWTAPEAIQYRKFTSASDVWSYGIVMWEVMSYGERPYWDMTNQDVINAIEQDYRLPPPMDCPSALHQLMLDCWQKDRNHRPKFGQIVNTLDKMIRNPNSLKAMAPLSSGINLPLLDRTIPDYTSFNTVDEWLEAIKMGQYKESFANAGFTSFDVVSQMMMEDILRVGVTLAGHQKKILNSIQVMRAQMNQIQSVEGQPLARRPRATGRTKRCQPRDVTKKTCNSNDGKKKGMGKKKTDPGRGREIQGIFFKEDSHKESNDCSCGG
Hck, sequence (P08631 whole entry, looked up): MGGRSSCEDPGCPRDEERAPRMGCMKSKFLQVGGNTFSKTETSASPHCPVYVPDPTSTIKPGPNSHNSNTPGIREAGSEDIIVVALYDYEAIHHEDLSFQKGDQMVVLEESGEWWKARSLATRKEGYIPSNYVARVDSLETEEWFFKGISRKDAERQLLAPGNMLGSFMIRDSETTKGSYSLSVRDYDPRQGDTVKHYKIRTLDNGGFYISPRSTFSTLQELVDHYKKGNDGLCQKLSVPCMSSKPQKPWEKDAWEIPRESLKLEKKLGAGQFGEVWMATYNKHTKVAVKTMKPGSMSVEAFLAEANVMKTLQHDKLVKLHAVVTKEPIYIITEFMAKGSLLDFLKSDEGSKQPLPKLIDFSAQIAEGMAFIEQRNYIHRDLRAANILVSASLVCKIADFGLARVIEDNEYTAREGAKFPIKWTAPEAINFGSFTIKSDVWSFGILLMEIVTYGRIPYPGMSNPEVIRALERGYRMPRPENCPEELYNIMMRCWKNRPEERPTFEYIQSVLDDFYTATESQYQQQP
MERTK, sequence (Q12866 whole entry, looked up): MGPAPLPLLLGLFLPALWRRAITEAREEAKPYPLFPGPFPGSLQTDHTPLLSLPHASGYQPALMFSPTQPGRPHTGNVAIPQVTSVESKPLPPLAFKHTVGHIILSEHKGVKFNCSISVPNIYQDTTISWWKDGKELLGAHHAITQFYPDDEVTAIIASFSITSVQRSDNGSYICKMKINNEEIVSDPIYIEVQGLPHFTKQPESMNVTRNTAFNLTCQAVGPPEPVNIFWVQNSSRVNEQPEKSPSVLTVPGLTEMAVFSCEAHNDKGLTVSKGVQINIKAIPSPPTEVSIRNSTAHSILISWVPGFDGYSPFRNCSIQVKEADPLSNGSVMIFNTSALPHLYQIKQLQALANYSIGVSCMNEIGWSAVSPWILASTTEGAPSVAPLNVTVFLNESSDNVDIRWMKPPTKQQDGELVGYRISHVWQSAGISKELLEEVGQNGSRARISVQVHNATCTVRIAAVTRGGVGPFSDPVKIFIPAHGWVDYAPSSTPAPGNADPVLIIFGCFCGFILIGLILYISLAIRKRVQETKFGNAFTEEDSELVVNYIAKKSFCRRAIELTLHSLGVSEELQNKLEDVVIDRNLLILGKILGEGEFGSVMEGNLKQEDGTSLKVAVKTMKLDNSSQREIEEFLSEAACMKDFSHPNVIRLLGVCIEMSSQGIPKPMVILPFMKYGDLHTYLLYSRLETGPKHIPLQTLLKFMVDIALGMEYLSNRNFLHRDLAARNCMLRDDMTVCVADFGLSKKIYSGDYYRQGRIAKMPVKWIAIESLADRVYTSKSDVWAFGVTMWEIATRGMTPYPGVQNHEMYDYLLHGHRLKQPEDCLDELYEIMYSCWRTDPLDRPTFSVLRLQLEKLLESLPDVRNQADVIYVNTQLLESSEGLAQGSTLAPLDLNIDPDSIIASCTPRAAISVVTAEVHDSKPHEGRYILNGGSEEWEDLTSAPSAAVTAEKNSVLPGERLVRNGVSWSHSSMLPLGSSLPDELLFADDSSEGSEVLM
Fes, sequence (P07332 whole entry, looked up): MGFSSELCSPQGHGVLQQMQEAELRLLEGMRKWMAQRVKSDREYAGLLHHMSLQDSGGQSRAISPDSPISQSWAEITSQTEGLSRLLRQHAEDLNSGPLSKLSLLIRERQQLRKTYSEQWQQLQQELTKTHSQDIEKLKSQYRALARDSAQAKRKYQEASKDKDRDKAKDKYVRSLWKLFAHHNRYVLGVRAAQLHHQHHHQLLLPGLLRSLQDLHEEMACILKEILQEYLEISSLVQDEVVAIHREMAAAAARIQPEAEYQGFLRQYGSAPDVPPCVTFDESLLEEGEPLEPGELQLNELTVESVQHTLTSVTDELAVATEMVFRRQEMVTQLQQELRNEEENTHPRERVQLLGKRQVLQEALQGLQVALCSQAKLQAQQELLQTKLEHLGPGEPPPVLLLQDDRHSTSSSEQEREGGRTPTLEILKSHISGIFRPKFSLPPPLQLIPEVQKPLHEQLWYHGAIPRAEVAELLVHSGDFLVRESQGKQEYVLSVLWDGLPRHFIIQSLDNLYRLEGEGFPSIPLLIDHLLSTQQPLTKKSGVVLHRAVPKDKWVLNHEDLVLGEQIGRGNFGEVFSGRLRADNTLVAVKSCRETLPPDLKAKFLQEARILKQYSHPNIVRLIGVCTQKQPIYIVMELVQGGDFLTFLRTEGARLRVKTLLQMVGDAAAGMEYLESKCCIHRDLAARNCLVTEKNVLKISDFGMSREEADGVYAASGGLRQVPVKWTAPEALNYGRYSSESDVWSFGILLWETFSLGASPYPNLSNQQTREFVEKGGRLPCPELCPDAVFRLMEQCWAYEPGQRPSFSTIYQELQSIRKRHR
FGFR3, sequence (P22607 whole entry, looked up): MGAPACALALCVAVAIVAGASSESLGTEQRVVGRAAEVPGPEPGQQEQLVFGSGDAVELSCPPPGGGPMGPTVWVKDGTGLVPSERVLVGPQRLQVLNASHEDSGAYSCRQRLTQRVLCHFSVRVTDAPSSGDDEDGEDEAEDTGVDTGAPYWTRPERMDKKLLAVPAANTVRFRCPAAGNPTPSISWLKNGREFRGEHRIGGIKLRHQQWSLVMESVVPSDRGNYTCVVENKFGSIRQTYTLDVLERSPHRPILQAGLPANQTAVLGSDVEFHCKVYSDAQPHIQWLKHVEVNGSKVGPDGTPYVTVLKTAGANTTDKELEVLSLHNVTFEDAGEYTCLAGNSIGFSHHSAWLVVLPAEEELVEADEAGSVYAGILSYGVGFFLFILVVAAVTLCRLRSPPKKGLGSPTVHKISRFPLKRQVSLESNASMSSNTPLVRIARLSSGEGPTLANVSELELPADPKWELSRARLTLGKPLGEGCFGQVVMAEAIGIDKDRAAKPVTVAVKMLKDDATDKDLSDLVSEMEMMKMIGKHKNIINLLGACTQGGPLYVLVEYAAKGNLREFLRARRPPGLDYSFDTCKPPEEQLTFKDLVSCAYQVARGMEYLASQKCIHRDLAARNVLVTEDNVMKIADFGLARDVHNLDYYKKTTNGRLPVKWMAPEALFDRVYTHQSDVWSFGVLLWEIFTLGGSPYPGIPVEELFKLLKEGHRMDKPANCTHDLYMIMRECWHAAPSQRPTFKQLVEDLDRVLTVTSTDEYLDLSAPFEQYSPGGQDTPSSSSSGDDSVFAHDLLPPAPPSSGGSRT
FGFR1, sequence (P11362 whole entry, looked up): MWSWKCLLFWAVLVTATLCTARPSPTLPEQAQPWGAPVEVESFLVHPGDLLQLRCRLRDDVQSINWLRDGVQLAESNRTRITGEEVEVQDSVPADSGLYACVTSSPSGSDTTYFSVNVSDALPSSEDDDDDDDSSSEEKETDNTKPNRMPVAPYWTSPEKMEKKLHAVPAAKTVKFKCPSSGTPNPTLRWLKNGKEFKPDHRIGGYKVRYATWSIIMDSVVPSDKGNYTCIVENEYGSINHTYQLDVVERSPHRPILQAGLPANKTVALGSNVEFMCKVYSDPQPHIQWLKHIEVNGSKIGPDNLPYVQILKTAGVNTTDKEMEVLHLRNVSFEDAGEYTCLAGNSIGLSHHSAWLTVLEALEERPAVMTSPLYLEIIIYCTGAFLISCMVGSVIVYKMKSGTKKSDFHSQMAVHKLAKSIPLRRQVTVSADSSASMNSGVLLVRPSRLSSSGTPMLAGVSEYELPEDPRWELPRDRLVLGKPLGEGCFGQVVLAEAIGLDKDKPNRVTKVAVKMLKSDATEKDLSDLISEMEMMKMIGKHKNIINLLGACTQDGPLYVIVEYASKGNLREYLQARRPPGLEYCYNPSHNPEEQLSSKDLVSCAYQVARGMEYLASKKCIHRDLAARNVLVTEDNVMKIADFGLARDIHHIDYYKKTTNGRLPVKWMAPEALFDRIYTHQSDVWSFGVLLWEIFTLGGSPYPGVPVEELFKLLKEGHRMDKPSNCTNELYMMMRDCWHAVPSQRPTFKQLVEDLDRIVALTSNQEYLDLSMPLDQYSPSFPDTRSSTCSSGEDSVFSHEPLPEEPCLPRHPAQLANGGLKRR

| Sequence | SH2 binding enrichment (c-Src SH2) | SH2 binding enrichment (Grb2 SH2) | SH2 binding enrichment (SHP2-C SH2) | phosphorylation enrichment (Fer (mouse)) | phosphorylation enrichment (Fyn) | phosphorylation enrichment (FGFR3) | phosphorylation enrichment (Jak2) | phosphorylation enrichment (MERTK) | phosphorylation enrichment (Fes) | phosphorylation enrichment (FGFR1) | phosphorylation enrichment (c-Src) | phosphorylation enrichment (AncSZ) | phosphorylation enrichment (EPHB2) | phosphorylation enrichment (Hck) | phosphorylation enrichment (EPHB1) | phosphorylation enrichment (c-Abl (mouse)) |
| --- | --- | --- | --- | --- | --- | --- | --- | --- | --- | --- | --- | --- | --- | --- | --- | --- |
| NTGYYYDLYGG [PTPN11_Y63_D61Y] | 5.74 | 1.33 | 1.56 | 3.4 | 5.76 | 11.3 | 4.73 | 8.78 | 1.25 | 13.9 | 4.67 | 1.73 | 10.6 | 6.15 | 11.3 | 0.971 |
| PAGSGYPAFLG [ATP6V1A_Y374_D371G_YF] | 0.538 | 0.828 | 0.778 | 0.512 | 0.478 | 0.794 | 0.687 | 0.469 | 1.13 | 0.737 | 0.735 | 1 | 1.17 | 0.626 | 0.634 | 0.869 |
| PANTVYSTVEI [SLAMF7_Y304] | 1.26 | 0.925 | 5.85 | 23.3 | 10.2 | 1.29 | 1.47 | 7.46 | 2.16 | 1.43 | 7.87 | 1.59 | 1.83 | 9.13 | 2.2 | 6.76 |
| PASWTYVRWFD [PTDSS1_Y274] | 0.766 | 1.47 | 1.65 | 0.729 | 0.669 | 1.35 | 1.79 | 0.51 | 1.79 | 0.907 | 1.01 | 1.71 | 1.1 | 1.14 | 1.12 | 1.04 |
| PEAALYGRFTF [FYN_Y440_I445F] | 0.328 | 0.652 | 0.563 | 2.75 | 10.1 | 0.971 | 1.41 | 5.92 | 1.6 | 1.29 | 7.87 | 1.21 | 1.2 | 8.89 | 1.14 | 4.39 |
| PEIIAYQPFGK [PRKCG_Y529_YF] | 0.664 | 1.06 | 1.11 | 0.672 | 0.688 | 0.796 | 0.976 | 0.653 | 1.1 | 0.777 | 1.07 | 1.03 | 0.645 | 0.798 | 0.635 | 0.672 |
| PEQAAYQKVVA [HBB_Y131_V127E] | 0.669 | 0.782 | 0.497 | 0.681 | 0.462 | 0.524 | 1.08 | 0.483 | 1.07 | 0.519 | 0.472 | 0.591 | 0.811 | 0.561 | 0.613 | 1 |
| PGIRMYRVQFN [LRFN1_Y454_Q455R_YF] | 0.469 | 0.796 | 0.606 | 0.611 | 0.656 | 0.618 | 0.844 | 0.652 | 1.14 | 0.622 | 0.607 | 1.35 | 0.642 | 0.485 | 0.468 | 0.512 |
| PGVDIYVSPNM [PADI3_Y51_I52V] | 0.524 | 0.804 | 0.555 | 0.708 | 1.52 | 0.781 | 1.24 | 0.629 | 1.71 | 0.809 | 0.885 | 1.37 | 1.46 | 2.76 | 1.17 | 2.3 |
| PICEGYALPHA [ACTC1_Y171_Y168C] | 4.74 | 0.951 | 0.918 | 0.577 | 0.707 | 0.598 | 0.453 | 0.445 | 0.804 | 0.682 | 0.406 | 0.946 | 0.587 | 0.535 | 0.488 | 0.897 |
| PIPAAYNRYDQ [CDC73_Y290] | 0.5 | 0.75 | 0.559 | 0.593 | 0.736 | 0.621 | 0.416 | 0.263 | 0.751 | 0.541 | 0.342 | 0.71 | 0.571 | 0.507 | 0.433 | 0.572 |
| PLDGEYLTLQI [TP53_Y327_F328L] | 0.504 | 0.522 | 0.555 | 1.08 | 1.08 | 2.15 | 2.48 | 0.764 | 2.31 | 1.64 | 1.14 | 2.75 | 1.23 | 0.927 | 1.46 | 2.16 |

Second part, led by results:

| SH2 binding enrichment (c-Src SH2) | SH2 binding enrichment (Grb2 SH2) | SH2 binding enrichment (SHP2-C SH2) | Sequence | phosphorylation enrichment (Fer (mouse)) | phosphorylation enrichment (Fyn) | phosphorylation enrichment (FGFR3) | phosphorylation enrichment (Jak2) | phosphorylation enrichment (MERTK) | phosphorylation enrichment (Fes) | phosphorylation enrichment (FGFR1) | phosphorylation enrichment (c-Src) | phosphorylation enrichment (AncSZ) | phosphorylation enrichment (EPHB2) | phosphorylation enrichment (Hck) | phosphorylation enrichment (EPHB1) | phosphorylation enrichment (c-Abl (mouse)) |
| --- | --- | --- | --- | --- | --- | --- | --- | --- | --- | --- | --- | --- | --- | --- | --- | --- |
| 0.696 | 0.762 | 1.11 | PASLSYLSFEG [EXOSC3_Y143] | 0.501 | 0.819 | 0.742 | 1.18 | 0.661 | 0.954 | 0.591 | 1.1 | 0.942 | 0.789 | 0.602 | 0.745 | 0.619 |
| 0.385 | 0.605 | 0.781 | PDGREYIYVDP [PDGFRA_Y572_H570R] | 0.983 | 1.07 | 5.18 | 1.88 | 1.42 | 1.35 | 8.67 | 1.77 | 3.36 | 2.74 | 1.28 | 3.98 | 1.93 |
| 0.919 | 1.15 | 1.12 | PFGQWYESHFA [RPS8_Y113_R110G_YF] | 17.7 | 1.32 | 1.01 | 0.907 | 4.87 | 1.43 | 1.01 | 4.21 | 1.3 | 4.94 | 1.53 | 5.8 | 0.764 |
| 0.534 | 0.939 | 0.771 | PFTRNYFVWAV [CYBA_Y87_R90W_YF] | 1.97 | 1.56 | 10.9 | 7.13 | 9.74 | 4.28 | 13.5 | 1.27 | 4.23 | 3.07 | 1.92 | 3.63 | 4.62 |
| 0.568 | 0.653 | 0.648 | PIGRKYKKVRF [F8_Y442_R437P] | 0.459 | 0.763 | 0.368 | 0.545 | 0.498 | 0.54 | 0.577 | 0.587 | 0.828 | 0.597 | 0.553 | 0.557 | 0.661 |
